The values that follow come from publication PMC3630167 (2013).

B1: mAb F26G3 IgG1 subclass switch variant (antibody, V domains shown)
VH: EVQLVESGGGLVQPKGSLKLSCAASGFTFNTYAMNWVRQAPGKGLEWVARIRSKSNNYATYYADSVKDRFTISRDDSQSMLYLQMNNLKTEDTAMYYCVRGYYGWDYWGQGTSVTVSS
VL: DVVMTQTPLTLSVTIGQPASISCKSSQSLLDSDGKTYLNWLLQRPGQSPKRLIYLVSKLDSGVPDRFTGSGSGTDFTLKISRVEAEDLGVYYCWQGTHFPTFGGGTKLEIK
B2: mAb F24F2 IgG1 subclass switch variant (antibody, V domains shown)
VH: EVQLVESGGGLVQPKGSLKLSCAASGFTFNTYAMNWVRQAPGKGLEWVARIRSKSNNYATYYADSVKDRFTISRDDSQSMLYLQMNNLKTEDTAMYYCVRGLRYLDYWGQGTTLTVSS
VL: not shown
B3: mAb F26G3 IgG2a subclass switch variant (antibody, V domains shown)
VH: EVQLVESGGGLVQPKGSLKLSCAASGFTFNTYAMNWVRQAPGKGLEWVARIRSKSNNYATYYADSVKDRFTISRDDSQSMLYLQMNNLKTEDTAMYYCVRGYYGWDYWGQGTSVTVSS
VL: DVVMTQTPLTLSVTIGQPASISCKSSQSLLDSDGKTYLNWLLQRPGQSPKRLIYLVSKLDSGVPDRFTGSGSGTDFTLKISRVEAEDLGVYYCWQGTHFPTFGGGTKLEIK
B4: mAb F26G3 IgG2b subclass switch variant (antibody, V domains shown)
VH: EVQLVESGGGLVQPKGSLKLSCAASGFTFNTYAMNWVRQAPGKGLEWVARIRSKSNNYATYYADSVKDRFTISRDDSQSMLYLQMNNLKTEDTAMYYCVRGYYGWDYWGQGTSVTVSS
VL: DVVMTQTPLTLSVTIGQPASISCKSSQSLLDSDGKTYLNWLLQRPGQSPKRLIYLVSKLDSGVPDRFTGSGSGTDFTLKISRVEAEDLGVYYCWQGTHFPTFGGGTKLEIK
B5: mAb F24F2 IgG2a subclass switch variant (antibody, V domains shown)
VH: EVQLVESGGGLVQPKGSLKLSCAASGFTFNTYAMNWVRQAPGKGLEWVARIRSKSNNYATYYADSVKDRFTISRDDSQSMLYLQMNNLKTEDTAMYYCVRGLRYLDYWGQGTTLTVSS
VL: not shown
B6: mAb F24F2 IgG2b subclass switch variant (antibody, V domains shown)
VH: EVQLVESGGGLVQPKGSLKLSCAASGFTFNTYAMNWVRQAPGKGLEWVARIRSKSNNYATYYADSVKDRFTISRDDSQSMLYLQMNNLKTEDTAMYYCVRGLRYLDYWGQGTTLTVSS
VL: not shown

As usually defined, the Kd is the constant that tells how readily two partners part at equilibrium.

No end group written: not given here.

The target in this assay is T1, synthetic (γ-D-Glu)5 (not fully specified (residues 1, 2, 3, 4, 5)).
T1 peptide: EEEEE
In the case of B1, the dissociation constant (Kd) was 13 µM. Take B2: the Kd turned out to be 18 µM. Consider B3, for which the Kd stood at 45 µM. The figure for B4 is 6.7 µM. B5: the affinity, expressed as Kd, was 18 µM. As to B6, binding was put at a Kd of 9 µM.
